Data as given in patent US20260258115A1.

B1: ADI-41173 (antibody, V domains shown)
VH: QVQLVQSGAEMKKPGSSAKVSCKASGGTLSSYAINWVRQAPGQGLEWMGGIIPIFGTTKYAPKFQDRVTITVDESTSTAYMELSSLRSEDTAVYYCSRESSTWDVAHYFDYWGQGTLVTVSS
VL: DIVMTQTPSAISASVGDRVTITCRASQGISNYLAWVQQKPGKVPKRLIYGASSLQSGVPSRFSGSGSGTEFTLTISSLQPEDFATYYCLQHNSYPYTFGQGTKVEIK
B2: ADI-41166 (antibody, V domains shown)
VH: EVQLVQSGAEVKKPGASVKVSCKTSGYTFTGDYLHWVRQAPGQGLEWMGRLNPKSGGTVYAQRFQGRVTMTGDTSVTTAYMQLTRLRSDDTAIYYCARGIPVSGPVSIDYWGQGTLVTVSS
VL: QSVLTQPASLSGSPGQSITISCTGTSSDVGGYGYVSWYQQHPGKAPKLMIYDVANRPSGVSHRFSGSKSGNTASLTISGLQADDEADYYCSSYTRSNTVVFGGGTKLTVL
B3: ADI-41154 (antibody, V domains shown)
VH: QVQLQQWGAGLSKPSETLSVTCAVYGGSLSGHYWSWFRQPPGKGLEWIGEIDHSGSTTYNPSLKSRVTISVDTSKNQFSLKLTSVTAADTAMYYCARATRYNYGYTFDYWGQGTLVTVSS
VL: DIPLTQSPSSLSASVGDRVTITCRASQIISSYLNWYQQKPGKAPKLLIYAASTLQSGVPSRFSGSRSGTDFTLTISSLQPEDFASYYCQQSYIIPFTFGPGTKVEIK
B4: ADI-41163 (antibody, V domains shown)
VH: QVQLVQSGGGVVQPGRSLRLSCAASGFPFHSYAMHWVRQAPGKGLEWVAVIWYEGSEKHYADSVQGRFTISRDNSKNMLYLQMNNLRVADTAVYYCARRGAWGFDIWGQGTTVTVSS
VL: DIVMTQTPLSLPVTPGEPASISCRSSQSVLHSTGYNSLDWYLQKPGQSPQLLIFLGSNRASGVPDRFSGSGSGTDFTLKISRVEAEDVGVYYCMQGLQTPYTFGQGTKVEIK
B5: ADI-41161 (antibody, V domains shown)
VH: EVQLVESGGGLVQPGGSLRLSCAASGFTFSTFEFNWVRQAPGKGLEWLSYISSDDTTRYYADSVKGRFTISRDNAKNSLYLQMNSLRAEDTAYYYCVRGGPYDYVWGTYRYFDFWGQGTLVTVSS
VL: QSVLTQPASVSGSPGQSITISCTGTSSDIGGYNYVSWYQQHPGKAPKLMIYDVTNRPLGVSNRFSGSKSGNTASLIISGLQAEDEAEYYCCSYTSSNSLVFGGGTKLTVL
B6: ADI-41219 (antibody, V domains shown)
VH: EVQLVESGGGLVQPAGSLRLSCAASGFTFSNYVMNWVRQAPGKGLEWVSYISSSGRTIHYADSVKGRFTISRDNAKNSLYLEMNSLRAEDTAVYYCARDPNYGGNSNRFDSWGQGTLVTVSS
VL: DIVMTQTPSSLSASVGDRVTITCRASQTISNYLNWYQQKPGKAPKLLIFAASSLQSGVPSRFSGSGSGTDFTLTISSLQPEDFATYYCQQSYSAPRVTFGPGTKVDIK
B7: ADI-41160 (antibody, V domains shown)
VH: QVQLVQSGAEVKKPGSSVKVSCKASGGTFSSYPIIWVRQAPGQGLEWMGRIIPILGIASYAQKFQGRVTITADKSTSTAYMELSSLRSEDTAVYYCARNSDFYYGMDVWGQGTTVTVSS
VL: QSALIQPASVSGSPGQSITISCTGTSSDVGGYNYVSWYQHHPGKAPKLMIYDVSNRPSGISNRFSGSKSGNTASLTISGLQAEDEADYYCSSYTSSSLYVFGTGTKVTVL
B8: ADI-41171 (antibody, V domains shown)
VH: EVQLVESGPGLVKPSQTLSLTCTVSGGSISSGGDYWSWVRQRPGKGLEWIGYIYNSGSGYYNPSLKNRVSMSMHTSRNQFSLRLSSVTAADTAFYYCARDPFYRSGGIHYFDYWGQGALVTVSS
VL: DIVLTQTPGTLSLSPGEGATLSCRASPSVGSTSLAWYQQKPGQAPRLLIYGASSRATGIPDRFSGSGSGTDFTLTISRLEPEDFAVYYCQQDGGLPITFGLGTRLEIK
B9: ADI-41169 (antibody, V domains shown)
VH: EVQLVESGAEVKKPGESLKISCEAFGYSFTSYWIGWVRQVPGRGLEWIGVIYPGDSDIRYTPSFRGQVTISADRSISTAYLQWNNLKASDTAMYYCARPGRDINYYHSRDYGALDIWGQGTTVTVSS
VL: DIQLTQSPDSLAVSLGERVTINCKSSQSFLYSSNNKNYLAWYQQKPGQPPKLLIYWASVRESGVPDRFSGSGSGTDFTLTISSLQAEDVAVYYCQEYYSPPMFTFGQGTKVEIK
B10: ADI-41153 (antibody, V domains shown)
VH: EVQLVESGGGLVKPGGSLRLSCAASQFTFSTYDMSWVRQAPGKGLEWVASISSGSTYIYYADSVKGRFTISRDNAKHSLFLQMKSLRAEDTALYYCARQVLYDRGGYYLYYFDHWGQGTLVTVSS
VL: DIQVTQSPSSLSASVGDRVTITCRASQTIASYLNWYQQKPGKAPNLLIYAASNLQSGVPSRFSGSGSGTEFTLTINTLQPEDFATYYCQQSYNFPYTFGQGTKVEIK
B11: ADI-41223 (antibody, V domains shown)
VH: QVQLVESGGGVVQPGRSLRISCAASGFTFSNYGMHWVRQAPGKGLEWVAVLSYDGSNEYYADSVKGRFTISRDNSKNTLYLQMNSLRAEDTAVYYCAKNLNDYNISWYKCFDLWGRGTLVTVSS
VL: QPVLTQPASVSGSPGQSITISCTGTSSDVGGYNYVSWYQHHPGKAPKLIIYDVNNRPSGVSNRFSGSKSGNTASLTISGLQAEDEADYICSSYTTITTFVVFGGGTKLTVL
B12: ADI-41144 (antibody, V domains shown)
VH: EVQLVQSGAEVKKPGGSVKVSCKASGYTFSEYYMHWVRQAPGQGPEWVGRINPKSGRTNYAQNFQGRVTMTRDRSISTVYMDLSRLRSDDTAVYYCARWEVMDYGSGIYYNQDHFDYWGQGTLVTVSS
VL: DIRVTQSPSSLSASVGDRVTITCRASQDITNYLAWFQQKPGKAPKSLMYAASTLQSGVPSRFSGSGSGTDFTLTISSLQPEDFATYYCQQYKTYPITFGQGTRLEIK
B13: ADI-41155 (antibody, V domains shown)
VH: QVQLQESGPGLVKPSETLSLTCTVSGGSIGNNFYYWGWIRQPPGKGLEWIGSIYYSGTTYDNPSLKSRVTISVEPSKNQFSLKLSSVTAADTAVYHCARRYCDSTRCYEAFDIWGQGTTVTVSS
VL: SYELTQPPSASGTPGQRVTISCSGSSSNIGSNYVSWYQQLPGTAPKLLIYKNDQRPSGVPDRFSGSKSGTSASLAISGLRSEDEAEYYCAAWDDSLSGFYVFGTGTKVTVL
B14: ADI-41162 (antibody, V domains shown)
VH: EVQLVQSGAEVKKPGSSVKVSCKASGVTGGTFSSYAISWVRQAPGQGLEWMGGIMPMFGTTNYAQKFQGRVTITADKSTSTAYMELSSLRSEDTAVYYCARDYRDFSPHLDYYYMDVWGKGTTVTVSS
VL: DIRLTQSPGTLSLSPGERATLSCRASQSVSTSYLAWYQQKPGQAPRLLIYGASNRATGIPDRFSGSGSGTDFTLTISRLEPEDFAVYYCQQYGRTSWTFGQGTKVDIK
B15: ADI-41170 (antibody, V domains shown)
VH: EVQLLESGGGLIQPGGSLRLSCAASGFTFNNYVMSWVRQAPGKGLEWVAAISSSGVSTYYAASVKGRFTISRDNSKNMLYVQLNSLRAEDTAVYYCAKETGSYYYFDSWGQGTLVTVSS
VL: ETTLTQSPSTLSGSVGDRVTITCRASESISSWLAWYQQKPGKAPKLLIYKASNLESGVPSRFSGSGSGTEFTLTISSLQPDDFATYYCQQYNSYLITFGQGTRLEIK
B16: ADI-41146 (antibody, V domains shown)
VH: QVQLVQSGAEVKKPGESLKISCKGSGHSFATFWIGWVRQVPGNGLELMGIINLGDSDTKYSPSFQGQVTISADESIGTAYLQWSSLKASDTAMYYCARVSLPHYYYYMDVWGKGTTVTVSS
VL: DIVMTQSPSSVSASVGDRVTITCRASQGISTWLAWYRQKPGKAPELLIYAASRLQSGVPSRFSGSGSGTDFTLTISSLQPEDFATYYCQQANSFLGAFGPGTKLEIK
B17: ADI-41194 (antibody, V domains shown)
VH: QVQLQESGPGLVKPSQMLSLTCTVSGDSISSGDYYWSWIRHHPGKGLEWIGYISYSGSTYNNPSLKSRVTVSVDTSKNQFFLKLTSVTAADTAVYYCARATKPYHSYFYMDVWGKGTTVTVSS
VL: EIVLTQSPGTLSLSPGERATLSCRASQSGSRSYLAWYQQRPGQAPRLLIYGASNRATGIPDRFSGSGSGTDFTLTISRLEPEDFAVYYCQQYGNAPTFGGGTKVDIK
B18: ADI-41149 (antibody, V domains shown)
VH: QVQLVQSGGGVVQPGRSLRLSCAASGFTFSDYGMHWVRQAPGKGLEWVAVIWFDGSNKNYADSVKGRFTISRDNSMNTLYLQMNNLRAEDTAVYYCARAPYSFWSGYYLDYWGQGSLVTVSS
VL: DIVMTQSPATLSVSPGERATLSCRASQSISSNLAWYQQKSGQAPRLLIYGASTRATGIPARFSGSGSGTEFTLTISSLQSEDFAVYSCQQYSKWPQTFGQGTKVEIK
B19: ADI-41218 (antibody, V domains shown)
VH: QVQLVQSGAEVKKPGASVKVSCKASGYTFISDGISWVRQAPGQGLEWMGWINPHNENTNYAQKFQGRVTMTTDTSTSTAYLELRGLRSDDTAVYYCARDPYHWSYLDYWGQGTLVTVSS
VL: QSVVTQPPSVSGAPGQRVTITCTGSSSNIGANSDVHWYQQIPGTAPKLLIFGNSNRPSGVPDRFSGSKSGTSASLAITGLQAEDEADYYCQSYDRSLSGSRVFGGGTRLTVL

Each binder was assayed against Respiratory Syncytial Virus fusion glycoprotein (RSV F) on RSV-A2 virus (Respiratory Syncytial Virus subtype A (RSV-A2)) (assay: cell-based or functional assay).

Row | Binder | Neutralization IC50 (RSV subtype A) [µg/mL]
1 | B1 | 0.08
2 | B2 | > 25
3 | B3 | > 25
4 | B4 | > 25
5 | B5 | > 25
6 | B6 | > 25
7 | B7 | > 25
8 | B8 | > 25
9 | B9 | > 25
10 | B10 | > 25
11 | B11 | > 25
12 | B12 | 0.37
13 | B13 | > 25
14 | B14 | > 25
15 | B15 | > 25
16 | B16 | > 25
17 | B17 | > 25
18 | B18 | > 25
19 | B19 | > 25

Each binder was assayed against RSV postfusion F (postF), F deltaFP (Respiratory Syncytial Virus) (assay: BLI, IgG on anti-human IgG sensor, 100 nM antigen).

Row | Binder | Kd [nM]
20 | B1 | 0.294
21 | B2 | 0.44
22 | B3 | 1.35
23 | B4 | 0.604
24 | B5 | 0.364
25 | B6 | 1.28
26 | B7 | 0.337
27 | B8 | 4.26
28 | B9 | 1.19
29 | B10 | 0.445
30 | B11 | 1.81
31 | B12 | 0.759
32 | B13 | 0.478
33 | B14 | 0.748
34 | B15 | 2.64
35 | B16 | 0.746
36 | B17 | 1.16
37 | B18 | 0.857
38 | B19 | 0.729

The binders below were run against RSV prefusion F (preF), DS-Cav1 (Respiratory Syncytial Virus) (assay: BLI, IgG on anti-human IgG sensor, 100 nM antigen).

Row | Binder | Kd [nM]
39 | B1 | 0.315
40 | B2 | 3.15
41 | B3 | 4.63
42 | B4 | 4.65
43 | B5 | 2.54
44 | B7 | 2.41
45 | B8 | 9.8
46 | B9 | 4.94
47 | B10 | 0.928
48 | B12 | 0.94
49 | B13 | 3.52
50 | B14 | 4.06
51 | B15 | 5.67
52 | B16 | 4.44
53 | B18 | 4.34
